Consider 14 sequences from the supplement of paper PMC10201428.

± gives the standard deviation of the averaged measurements.

The test system of data set [1] is VchCAST RNA-guided transposition machinery (E. coli BL21(DE3) host, lacZ target). As to the kind of experiment: relative integration efficiency (T-LR orientation) vs wild-type transposon end (log2 (normalized fold change)); transposon end mutated: right end (5 bp flank + 75 bp right end); higher = more efficient transposition. In a few lines: (§1)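 Pools of 1549 left-end or 1849 right-end barcoded transposon variants were cloned into a pUC57 mini-transposon donor and co-transformed into E. coli BL21(DE3) with a T7-driven effector plasmid carrying a CRISPR array, tniQ-cas8-cas7-cas6 and tnsA-tnsB-tnsC. Plating used 0.1 mM IPTG at 37°C for 18 h, and input plasmids and genomic integration junctions were PCR-amplified for Illumina sequencing, with two biological output replicates and four reference barcodes. Relative integration efficiency is the log-transformed fold change of output over input barcode abundance, normalised to the reference barcodes.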

For data set [2] the test system is unchanged. Put plainly: relative integration efficiency (T-RL orientation) vs wild-type transposon end (log2 (normalized fold change)); transposon end mutated: right end (5 bp flank + 75 bp right end); higher = more efficient transposition. In a few lines:
as §1

For “ACATTTGTTGATACAACCATAAAATGATAATTACACCCATCCCGGTCGCCGGCGACACAAACGCCCGGTCGCGGTAAGAGGATCATAGTCAGACCAACATTGCTACGACCCGTATTCGCACCGACAC”, the “relative integration efficiency (log2)” value is 0.414 ± 0.23 in data set [1] and -2.64 ± 0.12 in data set [2].

In the case of “ACATTTGTTGATACAACCATAAAATGATAATTACACCCATCCCGTGATAATTATCACACCCATAAATTGATATTGCCTCTGATCATAGTCAGACCAACATTGCTACGACCCGTATTCGCACCGACAC”, the figures for the “relative integration efficiency (log2)” value in data set [1] and in data set [2] were -1.98 ± 0.74 and -1.77 ± 0.12, respectively.

On to “ACATTTGTTGATACAACCATAAAATGATAATTACACCCATTAATTGATAATAATGACACCGAATTTAACTATAACGCTCTGATCATAGTCAGACCAACATTGCTACGACCCGTATTCGCACCGACAC”, for which the “relative integration efficiency (log2)” value in data set [1] is 2.24 ± 0.16; in data set [2], -1.51 ± 0.32.

Take “ACATTTGTTGATACAACCATAAAATGATAATTACACCCATTAATTGATAATGATGACACCGAATTTAACTATAACGCTCTGATCATAGTCAGACCAACATTGCTACGACCCGTATTCGCACCGACAC”: the “relative integration efficiency (log2)” value is 2.15 ± 0.056 in data set [1] and -1.4 ± 0.35 in data set [2].

Take “ACATTTGTTGATACAACCATAAAATGATAATTACACCCATTAATTGATAATTGTGACACCGAATTTAACTATAACGCTCTGATCATAGTCAGACCAACATTGCTACGACCCGTATTCGCACCGACAC”: the “relative integration efficiency (log2)” value was 2.21 ± 0.16 in data set [1] and -1.29 ± 0.37 in data set [2].

Turning to “ACATTTGTTGATACAACCATAAAATGATAATTACACCCATTTATTGATAATTATCACACCCATAAATTGATATTGCCTCTGATCATAGTCAGACCAACATTGCTACGACCCGTATTCGCACCGACAC”, the “relative integration efficiency (log2)” value in data set [1] was -0.628 ± 0.89; in data set [2], -0.33 ± 0.029.

As for “ACATTTGTTGATACAACCATAAAATGATAATTACACCCATTTTATGATAATTATCACACCCATAAATTGATATTGCCTCTGATCATAGTCAGACCAACATTGCTACGACCCGTATTCGCACCGACAC”, the figures for the “relative integration efficiency (log2)” value in data set [1] and in data set [2] were 2.63 ± 0.56 and 2.79 ± 0.74, respectively.

Regarding “ACATTTGTTGATACAACCATAAAATGATAATTACACCCCGAAATTGATAATTATCACACCCATAAATTGATATTGCCTCTGATCATAGTCAGACCAACATTGCTACGACCCGTATTCGCACCGACAC”, the “relative integration efficiency (log2)” value in data set [1] was -2.51 ± 0.16; in data set [2] it was -3.14 ± 0.19.

In the case of “ACATTTGTTGATACAACCATAAAATGATAATTACACCCCGCCATTGATAATTATCACACCCATAAATTGATATTGCCTCTGATCATAGTCAGACCAACATTGCTACGACCCGTATTCGCACCGACAC”, the “relative integration efficiency (log2)” value in data set [1] was -2.56 ± 0.28; in data set [2], -3.5 ± 0.22.

Consider “ACATTTGTTGATACAACCATAAAATGATAATTACACCCCGCCCGGTCGCCGGCGACACAAACGCCCGGTCGCGGTAAGAGGATCATAGTCAGACCAACATTGCTACGACCCGTATTCGCACCGACAC”, for which the “relative integration efficiency (log2)” value in data set [1] is 0.746 ± 0.13; in data set [2], -2.33 ± 0.061.

As to “ACATTTGTTGATACAACCATAAAATGATAATTACACCCCTACATTGATAATTATCACACCCAATTTAACTATAACGCTCTGATCATAGTCAGACCAACATTGCTACGACCCGTATTCGCACCGACAC”, the “relative integration efficiency (log2)” value was 0.306 ± 0.013 in data set [1] and -2.87 ± 0.33 in data set [2].

With “ACATTTGTTGATACAACCATAAAATGATAATTACACCCTAAAATTGATAATTATCACACCCATAAATTGATATTGCCTCTGATCATAGTCAGACCAACATTGCTACGACCCGTATTCGCACCGACAC”, the “relative integration efficiency (log2)” value was -1.14 ± 0.11 in data set [1] and -0.736 ± 0.05 in data set [2].

Consider “ACATTTGTTGATACAACCATAAAATGATAATTACACCCTATTATTGATAATTATCACACCCATAAATTGATATTGCCTCTGATCATAGTCAGACCAACATTGCTACGACCCGTATTCGCACCGACAC”, for which the “relative integration efficiency (log2)” value was -0.974 ± 0.13 in data set [1] and -0.713 ± 0.11 in data set [2].

In the case of “ACATTTGTTGATACAACCATAAAATGATAATTACACCGTATAATTGATAATTATCACACCCATAAATTGATATTGCCTCTGATCATAGTCAGACCAACATTGCTACGACCCGTATTCGCACCGACAC”, the “relative integration efficiency (log2)” value in data set [1] was -1.63 ± 0.12; in data set [2] it was -1.74 ± 0.11.
